{
  "source": "patent US12043671B2",
  "about": "“Antibodies targeting an amphiregulin-derived cell surface neo-epitope” (Gundersen Lutheran Medical Foundation, Inc., priority 2021, dated 2024)",
  "molecules": {"B1": {"name": "1A3-pHrodo (conjugate)", "VH": "QSVKESEGRLVTPGTPLRLTCTVAGYSLSRYHMCWVRQAPGKGLEWIGMIGGSGRTDYASWAKGRFTISKTSTTVDLKITSPTTEDTATYFCSTVYTDSDGDFWGPGTLVTVSS", "VL": "AELDMTQTPSSKSVPVGGTVTINCQASESVYSNDRLAWFQQKPGQPPKLLIYYASTLASGVPSRFKGSGSGTQFTLTISDLECADAATYYCQSCYDMSSYGVAFGGGTELEIL"}, "B2": {"name": "GMF-3E4: Rabbit monoclonal IgG specific to cleaved AREG; VH SEQ ID NO: 7, VL SEQ ID NO: 8 (antibody, V domains shown)", "VH": "QSVKESEGRLVTPGTPLTLTCTVSGFSLSDYWMSWVRQAPGKGLEWIGIAGYSDNTYYASRAKGRFTISKTSTTVVLKITRPTTEDTATYFCVRDLYGVYSSGTTLWGPGTLVTVSS", "VL": "AELVMTQTPSPVSAAVGGTVTISCQSSQSVYNNNRLAWFQQKPGQPPKLLIYYASTLASGVSSRFKGSGSGTQFTLIISDVVCDDAATYYCQGYYSGGITGFGGGTEVVVK", "modifications": "3E4 antibody, Heavy chain; 3E4 antibody, Light chain"}, "B3": {"name": "GMF-3A3: Rabbit monoclonal IgG specific to cleaved AREG; VH SEQ ID NO: 5, VL SEQ ID NO: 6 (antibody, V domains shown)", "VH": "QQQLVESGGRLVTPGTPLTLTYTVSGFSLSDYHMSWVRQAPGKGLQWIATISNRGNTYYASWAKGRFTISKTSTTVDLKITSPTTEDTATYFCARDNVHGDGVLVFYLWGPGTLVTVSS", "VL": "AELVMTQTPASVSEPVGGTVTIKCQASQSIGTNLAWYQQKPGQPPKRLIYKASTLASGVSSRFKGSGSGTEFTLTISDLECADAATYYCQGYYSGDSNAFGGGTEVVVK", "modifications": "3A3 antibody, Heavy chain; 3A3 antibody, Light chain"}},
  "key": {"MCF-7 cells": {"system": "MCF-7 cells", "experiment": "Tubulin staining (microtubule integrity)", "type": "cell-based, human", "details": "48 h treatment", "experimental": "FIGS. 4A-4E. In vitro 1A3-MMAE cytotoxicity in MCF-7 (FIG. 4A) and MCF-7F (FIG. 4B) cells measured by MTT assay after treatment with 1A3-MMAE, 1A3 or MMAE. FIG. 4C: Clonogenic growth of MCF-7 or MCF-7F cells after exposure to 1A3-MMAE and replating. FIG. 4D: The quantification of clonogenic growth assays in FIG. 4C. (FIG. 4E). Tubulin staining of MCF-7 cells after 48 h treatment with MMAE, 1A3, 1A3-MMAE (40× magnification)."}, "MCF7 breast cancer cells": {"system": "MCF7 breast cancer cells", "experiment": "MTT cytotoxicity assay", "details": "MCF7, 1.56-200 nM, 72 h", "description": "(§1) The cells were seeded at a density of 5000 cells/well in 96-well plates. Approximately 24 h after cell seeding, the cells were treated with varying doses (1.56, 3.125, 6.25, 12.5, 25, 50, 100 and 200 nM) of MMAE, 1A3 and 1A3-VC-PAB-MMAE. Untreated cells were used as control. After incubating for 72 h, the medium was aspirated and 50 μL of serum-free media and 50 μL of MTT solution (5 mg/mL solution in PBS) was added into each well; the cells were then incubated for 3 h at 37° C. The formazan crystals formed were dissolved with 4 mM HCl, 0.1% NP40 in isopropanol. The absorbance was measured at 590 nm using VersaMax Microplate Reader (Molecular Devices LLC, San Jose, California, USA). The assays were performed in triplicate."}, "[1]": {"system": "MCF7-F (fulvestrant-resistant MCF7) breast cancer cells", "experiment": "MTT cytotoxicity assay", "details": "1.56-200 nM, 72 h", "description": "as §1"}, "MCF7 cells": {"system": "MCF7 cells", "experiment": "Internalization and intracellular localization of 1A3-pHrodo, live-cell imaging", "type": "cell-based, human", "experimental": "In order to study internalization, 1A3 was conjugated with pHrodo iFL Red dye using pHrodo iFL Red Microscale Protein Labeling Kit (P36014, Thermo Fisher Scientific). MCF7 cells were seeded in 12 mm Nunc Glass Bottom Dish, at a density of 1 ×10^5 cells/dish. After allowing the cells to attach overnight, the cells were incubated for 60 min with […] Hoechst dye for nuclei staining and LysoTracker® Green DND-26 (Thermo Fisher Scientific) for lysosomal labeling. The cells were then incubated with 1A3-pHrodo (2 μg/mL) for 20 min at 37° C. After washing the wells with PBS, the cells were supplemented with 1× live-cell imaging solution (Molecular probes, Thermo Fisher Scientific). Fluorescence images were acquired at 30 min intervals for 2.5 h with the Olympus 1×71 inverted fluorescence microscope (Olympus, Shinjuku, Tokyo, Japan). TAPI-2 (20 μM)—pre-treatment was performed overnight, with DMSO serving as a control."}, "[2]": {"target": "T1, peptide representing the neo-epitope of the ADAM17-cleavage product of human AREG (Homo sapiens, UniProt P15514)", "T1 construct": "host or cells: synthetic peptide", "experiment": "ELISA of rabbit IgG candidates against peptides representing cleaved and full length AREG", "type": "binding", "details": "IgG format; cleaved vs uncleaved AREG peptide", "from_the_text": "FIGS. 1A-1C. Isolation of antibodies that selectively recognize a peptide representing cleaved AREG. FIG. 1A: Schematic representation of the AREG cleavage and EGFR activation process, one consequence of which is the internalization of the small transmembrane fragment that remains cell-associated after TACE/ADAM17-mediated cleavage. FIG. 1B: Schematic representation of phage panning strategy using a peptide representing the cleaved AREG neo-epitope adhered to the well and a peptide representing the non-cleaved AREG region in the liquid phase.\nRabbit monoclonal IgG antibodies specific to cleaved-AREG were identified in contracted screening (Oak Biosciences Inc., Sunnyvale, CA, USA) using a recombinant Rabbit naïve phage display library (scFv format, VK-linker-VH) screening platform after four rounds of panning and ELISA validation. For panning, phage was selected against a peptide modeling the ADAM17-cleaved cell-associated epitope of AREG,^12 represented by the N-terminal region of THSMIDSSLSKI (SEQ ID NO: 2), and counter-selected against a peptide spanning this region (SMKTHSMIDSSLSKIAC; SEQ ID NO: 9), representing uncleaved AREG. […] GMF-1A3, referred to hereafter as simply “1A3”, was the antibody chosen for further characterization in this Example."}},
  "note": "Non-standard residues stand in square brackets, D forms with d. Residues, ends and D or L forms follow the SMILES beside them. *: point of attachment. Dolaproine = CO[C@@H]([C@@H]1CCCN1)[C@@H](C)C(=O)O; Dil = CC[C@H](C)[C@H](NC)[C@@H](CC(=O)O)OC; X1 = C[C@@H](N*)[C@@H](O)c1ccccc1; NMeV = CN[C@H](C(=O)O)C(C)C",
  "data": [
    {"molecule": "CC[C@H](C)[C@@H]([C@@H](CC(=O)N1CCC[C@H]1[C@H](OC)[C@@H](C)C(=O)N[C@H](C)[C@@H](O)c1ccccc1)OC)N(C)C(=O)[C@@H](NC(=O)[C@@H](NC)C(C)C)C(C)C", "note": "[MMAE, monomethyl auristatin E, reference compound] (H-[NMeV]V[Dil][Dolaproine]-X1)", "values": [
      {"measurement": "tubulin disruption (microtubule integrity)", "setting": "MCF-7 cells", "result": "exhibited tubulin disruption"},
      {"measurement": "cytotoxicity by MTT assay", "setting": "MCF7 breast cancer cells", "result": "potently killed the cells"},
      {"measurement": "cytotoxicity by MTT assay", "setting": "[1]", "result": "potently killed the cells"}
    ]},
    {"molecule": "B1", "values": [
      {"measurement": "time of treatment after which red fluorescence (presence in acidic endosomes) was evident", "setting": "MCF7 cells; 1A3-pHrodo 2 μg/mL", "result": 30, "unit": "min"},
      {"measurement": "fluorescence development after pretreatment with ADAM17 inhibitor TAPI-2", "setting": "MCF7 cells; TAPI-2 20 μM overnight pre-treatment", "result": "prevented the development of fluorescence"}
    ]},
    {"molecule": "B2", "values": [
      {"measurement": "selectivity for cleaved AREG by ELISA", "setting": "[2]", "result": "selectivity for cleaved AREG was confirmed"}
    ]},
    {"molecule": "B3", "values": [
      {"measurement": "selectivity for cleaved AREG by ELISA", "setting": "[2]", "result": "selectivity for cleaved AREG was confirmed"}
    ]}
  ]
}
